Measured values published in publication PMC7538418, “Structural basis for the transition from translation initiation to elongation by an 80S-eIF5B complex” (Nature Communications, 2020).

Target: T1, eIF5B (residues 396–1002) (S. cerevisiae, UniProt P39730 396-1002)
T1 construct: translation initiation factor eIF5B (GTPase), Saccharomyces cerevisiae, residues 396-1002; also called eIF5B:GTP; eIF5B-GDP; source: prepared and characterized as described [11]
T1 sequence (looked up): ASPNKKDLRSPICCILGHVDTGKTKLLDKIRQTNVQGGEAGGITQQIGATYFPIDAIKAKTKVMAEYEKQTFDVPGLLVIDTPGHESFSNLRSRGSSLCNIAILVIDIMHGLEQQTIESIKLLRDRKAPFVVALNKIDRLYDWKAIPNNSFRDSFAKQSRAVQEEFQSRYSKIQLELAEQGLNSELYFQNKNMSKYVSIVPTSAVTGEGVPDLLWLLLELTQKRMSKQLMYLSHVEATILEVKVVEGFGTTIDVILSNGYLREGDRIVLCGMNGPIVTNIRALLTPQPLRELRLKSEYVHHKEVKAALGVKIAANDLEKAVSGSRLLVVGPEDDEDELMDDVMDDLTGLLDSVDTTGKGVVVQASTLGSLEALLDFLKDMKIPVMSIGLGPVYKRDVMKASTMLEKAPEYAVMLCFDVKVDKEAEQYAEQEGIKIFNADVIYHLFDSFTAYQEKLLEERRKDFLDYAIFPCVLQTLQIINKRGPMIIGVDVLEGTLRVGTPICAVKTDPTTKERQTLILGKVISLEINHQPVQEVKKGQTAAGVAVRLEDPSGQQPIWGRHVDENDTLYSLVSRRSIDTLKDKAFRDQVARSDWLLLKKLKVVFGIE
Assay: cryo-EM structure; 48S PICs mixed with eIF5B:GTP and 60S, frozen ~40 s after mixing; 30 mM HEPES-KOH pH 7.5, 100 mM KOAc, 10 mM Mg(OAc)2, 1 mM GTP:Mg2+; grids at 21 °C; uL16 within the 60S subunit
Settings: both partners purified

binding result: binds
B1: ribosomal protein uL16 (natural protein, S. cerevisiae)
chain: RRPARCYRYQKNKPYPKSRYNRAVPDSKIRIYDLGKKKATVDEFPLCVHLVSNELEQLSSEALEAARICANKYMTTVSGRDAFHLRVRVHPFHVLRINKMLSCAGADRLQQGMRGAWGKPHGLAARVDIGQIIFSVRTKDSNKDVVVEGLRRARYKFPGQQKIILSKKWGFTNLDRPEYLKKREAGEVKDDGAFVKFLSKKGSLENNIREFPEYFA
notes: ribosomal protein uL16, component of the 60S large ribosomal subunit, Saccharomyces cerevisiae; Stood in the assay as a subunit of the whole 60S/80S ribosome, not as an isolated protein; source: in yeast Saccharomyces cerevisiae 60S ribosomal subunits, prepared as described [11]
